Measurements reported in article PMC4754747, “A single residue substitution accounts for the significant difference in thermostability between two isoforms of human cytosolic creatine kinase” (Scientific Reports, 2016).

Biological target: the molecule itself
Assay: SEC; gel filtration on Superdex 200 10/300 GL (AKTA purifier) of thermally inactivated samples; heated at 45 °C (thermal inactivation: 0.2 mg/ml enzyme in 5 mM Tris-HCl, pH 8.0, 10 min); dimer to monomers

Protein	stoichiometry N	binding result
hBBCK P36L mutant (BP36L) (enzyme, creatine kinase, brain type (B subunit), human, with P36L; Site-directed mutant of m1; details are in the Supplementary Information) not shown	2	
human brain-type creatine kinase homodimer (hBBCK) (enzyme, creatine kinase, brain type (B subunit), human; wild type; also called WT hBBCK; hBCK) not shown		binds
